Laboratory results from paper PMC3092057.

Legend:
Test in all cases: EMSA
TIEG1(DBD) T445E = TIEG1(DBD) T445E (Homo sapiens, UniProt Q13118 363-480, T445E)
TIEG1(DBD) T445A = TIEG1(DBD) T445A (Homo sapiens, UniProt Q13118 363-480, T445A)
TIEG1(DBD) S384A/T445A = TIEG1(DBD) S384A/T445A (Homo sapiens, UniProt Q13118 363-480, S384A;T445A)
TIEG1(DBD) S384A = TIEG1(DBD) S384A (Homo sapiens, UniProt Q13118 363-480, S384A)
TIEG1(DBD) S384E/T445E = TIEG1(DBD) S384E/T445E (Homo sapiens, UniProt Q13118 363-480, S384E;T445E)
Sequence of TIEG1(DBD) S384E/T445E (Q13118 363-480 S384E/T445E): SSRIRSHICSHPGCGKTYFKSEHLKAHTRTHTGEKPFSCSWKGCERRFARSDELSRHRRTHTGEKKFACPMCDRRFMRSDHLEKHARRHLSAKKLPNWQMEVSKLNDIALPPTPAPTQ

TIEG1(DBD) S384E = TIEG1(DBD) S384E (Homo sapiens, UniProt Q13118 363-480, S384E)
Sequence of TIEG1(DBD) S384E (Q13118 363-480 S384E): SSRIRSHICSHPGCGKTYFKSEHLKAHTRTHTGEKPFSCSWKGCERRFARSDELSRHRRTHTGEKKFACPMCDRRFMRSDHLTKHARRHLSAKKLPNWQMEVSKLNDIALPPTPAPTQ

TIEG1(DBD) = TIEG1(DBD) (Homo sapiens, UniProt Q13118 363-480)
Sequence of TIEG1(DBD) (Q13118 363-480): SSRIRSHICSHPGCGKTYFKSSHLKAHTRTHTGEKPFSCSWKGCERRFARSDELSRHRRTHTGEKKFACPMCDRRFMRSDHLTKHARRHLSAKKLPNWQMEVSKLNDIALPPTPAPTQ

Measured: binding result

Sequence of TIEG1(DBD) T445A (Q13118 363-480 T445A): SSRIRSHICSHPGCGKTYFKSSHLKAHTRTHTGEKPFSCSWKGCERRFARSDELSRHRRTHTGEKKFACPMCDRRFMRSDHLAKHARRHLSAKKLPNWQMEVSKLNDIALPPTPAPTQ
Sequence of TIEG1(DBD) S384A (Q13118 363-480 S384A): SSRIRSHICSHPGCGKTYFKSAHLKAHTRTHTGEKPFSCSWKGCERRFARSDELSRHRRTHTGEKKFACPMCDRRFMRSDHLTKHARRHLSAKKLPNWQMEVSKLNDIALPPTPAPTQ
Sequence of TIEG1(DBD) S384A/T445A (Q13118 363-480 S384A/T445A): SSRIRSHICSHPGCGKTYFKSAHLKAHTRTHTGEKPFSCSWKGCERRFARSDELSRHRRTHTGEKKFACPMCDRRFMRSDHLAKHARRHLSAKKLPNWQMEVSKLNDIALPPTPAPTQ
Sequence of TIEG1(DBD) T445E (Q13118 363-480 T445E): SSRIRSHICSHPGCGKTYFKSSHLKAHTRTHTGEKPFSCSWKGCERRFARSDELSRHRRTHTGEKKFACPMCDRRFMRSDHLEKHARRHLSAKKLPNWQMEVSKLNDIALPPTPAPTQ

B1: set I TIEG1 site (dsDNA)
DNA 1: TGCAGTGAAAAGGGGGTGTGTCAGGATGC
DNA 2: TGCATCCTGACACACCCCCTTTTCACTGC
binds: TIEG1(DBD) T445E | TIEG1(DBD) T445A | TIEG1(DBD) S384A/T445A | TIEG1(DBD) S384A | TIEG1(DBD)
no binding: TIEG1(DBD) S384E/T445E | TIEG1(DBD) S384E
